In paper PMC12048575, “Structure of the complex of C1q-like 3 protein with adhesion-GPCR BAI3” (Communications Biology, 2025):

Biological target: T1, Mouse BAI3 N-terminal domain (NTD) encompassing residues 26-290 (mouse, UniProt Q80ZF8 26-290)
T1 construct: The vector encodes a 3C site, an Fc-tag and a C-terminal His tag after the NTD; the His tag lies after the 3C site and so was probably removed with the Fc; also called BAI3 NTD; BAI3 CUB domain; source: HEK293S GnTI- cells, BacMam virus (pVLAD8L), secreted, purified (Ni2+-NTA, 3C cleavage, SEC); not shown: Fc, C-terminal, cleaved
T1 sequence (looked up): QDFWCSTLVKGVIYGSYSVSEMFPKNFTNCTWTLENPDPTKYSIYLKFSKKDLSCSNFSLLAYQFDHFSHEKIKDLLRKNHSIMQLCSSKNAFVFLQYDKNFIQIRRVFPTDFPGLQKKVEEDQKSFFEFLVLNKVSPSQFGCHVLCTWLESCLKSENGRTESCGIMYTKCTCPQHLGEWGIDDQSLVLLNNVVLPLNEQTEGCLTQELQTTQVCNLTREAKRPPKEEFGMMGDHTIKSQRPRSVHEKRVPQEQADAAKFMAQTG
Test: SEC; purified proteins mixed, size-exclusion chromatography and Coomassie-stained SDS-PAGE of fractions; 1x HBS (10 mM HEPES pH 7.2, 150 mM NaCl) with 2 mM CaCl2
Conditions: both partners purified

B1: C1ql3 globular C1q-like domain (residues 122-255) (domain or fragment, mouse, UniProt Q9ESN4 122-255, looked up)
chain: STVPKIAFYAGLKRQHEGYEVLKFDDVVTNLGNHYDPTTGKFTCSIPGIYFFTYHVLMRGGDGTSMWADLCKNNQVRASAIAQDADQNYDYASNSVVLHLEPGDEVYIKLDGGKAHGGNNNKYSTFSGFIIYAD
notes: C1q-like 3 protein (C1ql3), mouse, C1q-like domain, residues 122-255; buffer contained 2 mM CaCl2; The tag is surmised from the Ni-NTA step; also called C1q-like domain trimer of C1ql3; C1ql3 C1q-like domain; source: Expi293F GnTI- cells, transfected (pEG BacMam), purified (Ni2+-NTA, SEC)
B1: binds.
